Measured values taken from the domain aggregation screens of Martell et al. (2025).

Test: soluble fraction after stress (log2 fold change); higher = more stays soluble; pooled small domains, quantitative proteomics
Details: stress: pH 4
Method in brief: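 After pH 4 stress, pooled custom libraries of small protein domains were quantified with high-throughput quantitative proteomics. Aggregation propensity is taken from the fold change in each domain's soluble amount following the acid stress. The scale is log2, where higher values mean more stayed soluble.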

Row | Sequence | soluble fraction (log2)
1 | HMSHSVLIDISQLRIGMYIQLDVGWMHHPFPVSSFRVASLEQIEALRTLNLAQVRYFPAKSDPV | -1.11
2 | HMGTYYTEIIAQLKKEIANGTWKLGERLPGELALAKQFNVSRSSIREALKALAYAGIVESKPGRGTFLLHV | -0.207
3 | HMLQLKEPLKKVYERLTPVPKTAETILAELWEKGEYLDIAALHRALMELELSGYVRQSSPGYFGTSA | 0.00945
4 | HMDWFDELKVSTDDSGRVTAPEESEFMFQTSNEKIFAGGDMVRGSDLVVTAIWEGRQAAEGIMDYLD | -0.726
5 | HMDSSALEPIVDQIIADNPKQVEQFQAGKTKVLGFFVGQVMKQTDGTANPKQVNELVAARLKSA | 0.0973
6 | HMPSQEQSDKNAAMAFLPVIVKNALNGKGLKISDDWKAAVNTALAQYPLVNKFFNADSPEVTELVMGL | 0.0187
7 | HMAKNDSGLNNHTFNTIRDALQKALTDGPQEAKKLTENLPFPADKIITVIRYLADHDEHFSLEDGIISLT | -0.0785
8 | HMEHPNNTELTQKLELGTELMQYGDYNYALKVFNNVIDSDPEWSEAWNKRATVYFLMSQFTDSLSDIDRV | -0.17
9 | HMHDLSQQIVRYLIQQGGSSSLTDKSDPQEIYRTFKVSKKKYKQALGNLYKSKTIVITSGKIELVD | 0.306
10 | HMVNDQSIYASEGYVHIRSGKPVSLRIYTILGALYRHEERLVGDHVIALPRGLYIVVLNHTAKKIMV | 0.021
11 | HMSDPEAFIRQTVAAAEPEGIALSVLGKRVRGKFRTFKLRDLGYAQFRPYLGDLDGIKVEQRDGQSYARLD | 0.045
12 | HMVILPGEKMVVKIVQPGKEKGQGVGYLADGTMIVVDSGDKMIGQDVPTEITRVFQTVAGKMLFAVPVD | -0.255
13 | HMTGIQDVPALETRRVGNTFFFDRATDVQVYDLQGRLLQQARKVTSVSIGHLQQGVYVLTDGRASVKVQ | -0.7
14 | HMLKFGLSQRELQILALLPTDEPLSILAKSLFISESTLKTHLTHIYRKLGVKNRLQAINVARKAGLLK | -0.502
15 | HMKQVTVGGTINAGGARIYADSYGNGGGRQTFGSDPIYTVLQERNGYILTRWHKLSSGYTGWFKKSDVSA | -0.00968
16 | HMNNLNDIIEIIRIYAKNYARNNPSWNHSELINRIRDKALGEAEDYNIRLSEEDLALITELSLRGL | -1.24
17 | HMVVKLTQEQDRFIKTFNDKSLAFYYISSWGWGSFLRNGIGGVYEGDKTPFTLDEKEKMLNAIINGYEVI | -1.36
18 | HMQTFGTMIAALRKEQGMTQLELAEKMGVTDKAVSKWERDLSFPDVNSLPKLAEIFHVSVDEL | 0.216
19 | HMREITVEELYELEGIRIVGTIPGISAWVAESGRQMVFLVGQKVKGHDLLEVGESRVVLRKGDSVVNVLL | -1.21
20 | HMFVNADEIAKGLSPFNPSSVAIEAGRLMLKRIGELLSAGVSFSVETTLSTRSYINLIQQAQNQGYSVSL | ≥ 0.43
21 | HMKKILLGDVNLDGKVDVNDVTLLQRYIAGETEVITSKDALTATNFNKDGNIDVLDVTDIQTFIANSE | 0.00934
22 | HMRHSLAAALTELRRLAALDLGDFFRFEYVSHTDSLGGKQQAYTEGIRVSFGVYLGVNKKDRLNVDPVV | -2.38
23 | HMELNFEGFYRFVRDELNVDLNAYKEKQLKRRIATVMKSSGALTLEDYSRLIANDEVIRNKFLDYITI | -0.894
24 | HMRKLTDRQRQILDLIKTIIAETGAPPTRAEISTALGFKSANAAQEHLQALAQKGMIDLVSGASRGIRLRG | -0.194
25 | HMPEITPAMIKALLSSLSEELAFASVTKVYAVLHNLFKAALLDDTIDRNPMDKVPRPRKSKDAAL | -0.424

Row | Sequence | soluble fraction (log2)
26 | HMRKTIQDFLSSNKVDIAKLLTLALEKTKEDLYKNLSYNLTNKELEKLKLLIKKREQGIPFAYLS | 0.0954
27 | HMDVNMLVTGMLHKGEKSFVRVSFLRGKDWAEGIVPDAKIEKSQGFMEEEVARLEAYLLEQKSMIMEQA | -1.24
28 | HMDTHRLNYSDFVAEVQAQRVSKVVIDGYTIVGQRTNGETFETVRPALQDPKLVDDLLQNNVIIEGKQPE | -0.143
29 | HMASVLTGMLGRVTGELAPKGIVMVGNETWTAVSEDDSVIRIGEPVEVRSVEGLILTVFRRID | -1.55
30 | HMEHIEVDTSHIAVGSKVKHKAFGLGEITDKGNTYVFVKFDGQAIPKKFQFPGAFTQGFLTK | 0.154
31 | HMEPREALDGLISERGETYASISRLLGRNSAYIQQFIKRGSPARLDQSDIALLALHFDVPVEMLGGKE | 0.054
32 | HMDFSNVNFSQVSDSELDLLMRRASAQGYTQFDLLKIARAQGLTQAEIEKLDKRFKSAETVAYVAENA | 0.0811
33 | HMGSVDMVYGDHKINSEHMDLSFKNQTAVLYDKVNYKSSLSMLSADKILVNFLNKYTKIEMNDENNNILIQ | -0.128
34 | HMKLQIQNIEIDKKISELAEGVSAEKLPFLAKLIDRSKLLNDKGEINEDSVKAAIEEVVKAFPDFK | -0.945
35 | HMRVGISRNSGAAGIAVWLTQKLGRPVAKTEEIVHILKNWVDDQYEAGRVTNIGDGELWSVYKQMEAEE | 0.0584
36 | HMSGEPVKSTLPGNVFKILVAVGDSVKKGQRMFVLEAMKMEIDVNAPKDGLVTSIEVQQGQTVANGQILAK | 0.181
37 | HMEIDMQEGIKTIILMMKEHNITPSEAMKIYKSANGDIHYISKIYNHFKNKGADNFVALMIKMVKPGEFIE | -0.398
38 | HMGDYDHYVVKVEDTLLNWLVTNVTTMSRNKLKDILAGQGIKVNGKITTKYDYPLTPGMKIAISKTKR | -0.351
39 | HMKTEVNITPGIIDWIERYVQTDKISSSMTEDFQHWKSGTKKPTFNQVEAFSKAINVPLGYFFLKTPPAE | -0.902
40 | HMTSAHEKAFDLFDGGKLSEKALLIAVGAERSGFELAGDLRLRTLTAFEDGRLSEDAMIKLL | -1.5
41 | HMLSDLTPGDLVVHATHGIGRFLGIRKLELEGMTKDYITIQYRGNENLYVPVTQMDLVSRYI | -0.975
42 | HMETYEFNITDKEQTGMRVDKLLPELNSDWSRNQIQDWIKAGLVVANDKVVKSNYKVKLNDHIVVTEKEV | -0.2
43 | HMVVLPGEVVALKIIQTGSSKDQGVGYLEDGTMVVVDGAKNSIGKTIEIQISRSHQTVAGRMLFGIAMS | -0.0841
44 | HMQNKFLDIVGEIEVKAVDYYLLKDTSGLVIKFPKNLVFANGLKIADNKIGLTVSLYGAWVHEET | -0.498
45 | HMTILTSSQRKALISKMIRQGGVESQSHLVKLLAREGVKVTQATASRDLEDLGATRVRDANGEFQYVIP | 0.0156
46 | HMINLNEVLANFQKSYPNLAGFKYDQGMDALVYEGNYIRLNGYMLSRINPTLFSMSPDDIFTYLKNGF | -1.22
47 | HMKSKYLIKIEGDFDEKDLYKYLINVSIVNHTKNNGFTEVEFYNDNYSLQQNFLKSMLNDGIIITEFKKVE | -0.558
48 | HMPQGFEDLTEREREVLTLIAEGRTNQEIADALVISIKTVNRHRENIMAKLNLHSRVELVRYAIAQGLI | -0.723
49 | HMTGKVSHGERKSVLVSLAGSMRARGMSIDAVRAGLYADNEKRFDPPLDERDIEDVLNSAKKWGDP | -0.0814
50 | HMAQLPADLSKVKSSQISDQQLTQIAQQAKNSGQSEQAVLQELKQRGLPDTEIQALGARISGLMQ | 0.404

Row | Sequence | soluble fraction (log2)
51 | HMARAVSPLEAIPGVGPRRRQQLLKQLGGMQEVARAGVEDLSRVPGISRALAQQIYDAFHGD | 0.0348
52 | HMEWEVHSVTVTPELSGERLDVAATALLSQFSRALVQRWIDANELTLNERPVKAKSKVRVGDLIAVKAK | 0.0878
53 | HMEYQSLVLDFLEQGDFNAEKLKDYQRAFAKQNGMQTLPSKSQILQAYFQLVEEKKINKNSDFELLLRKR | -0.362
54 | HMNDRERIGKRIAQLRMEAGISQYKLAELTGLAPGNIARIETGKYSTGIDILSKIGDALGYQLDFI | -0.414
55 | HMSTMTDAQRHLFANKLSQLPEMGKYSHGTESYQQFAVRIAEMLQTPKKFKELYPYLQKVGFKA | 0.0225
56 | HMGSGQVTLPDLEGKSMKEVARILSQLGLHLSPDGHGLAFKQSPAAGTRVPVGSTIKVSFQPL | -0.208
57 | HMSATQDAAIAVRIRDILSELDGYEDVTVTVTSGIVTMRGTTLDSEKIARLNDLTGRVEGVVAIENSVTET | -2.31
58 | HMKNYYELLGVAREASQDQIKKAYRKLARKYHPDVSKEADAETRMQELNVAYDTLSDAEKKREYDFQLDHP | 0.218
59 | HMEFQVKVIVSSLNIRSGPGTSYDTLGTVTKGDIFTIVETNSDSTWGKMQSGGWISIKDAYVKK | -0.216
60 | HMDDKLKKLEEVFEMQEGTLTPDMRLDELEEWDSMTRLSLIVMMEDDYGKKVKRSEVMNYTTVQDIVDSME | -0.946
61 | HMVTFDEISQSLVRDVAARRSLSVQTLHAMVDRYNAGSSINAVANQYGIDRLKLREILIELGVHVAT | -0.44
62 | HMGIKYTNQRVEILNFLKDNLSHPTVDDVYEGVKKKLTRISKATVYQNLKFLASKGLIQEVNIKGVSRFEP | 0.22
63 | HMEVKSGFVHLTGAVKSPGVYPISIGMRLFEVIALAGGFTAKADRESVNLARTVTDGEQIIVSGSG | -0.778
64 | HMEVPMELPRQLRANRERLGLSQEDVAHAIYVSRQTMSSWERGKTYPDVQSLMLLSHLFGISIDELVKGDV | -0.338
65 | HMSKSKSEIDKDPHFWSSLFQRIGEGESLRKIAKDSKIPKSTLWAWIRNDPQLALRYSEAQQ | 0.00982
66 | HMTEDELLAQFEEILDGYVGKPGGLIPALQTAQKLFGYLPKRVLQLISMKLDIPYSEVTGVVSFYSFFTTV | -1.12
67 | HMEILTRQLTHYLHLLPPAQQEVVRGVYLQDQTLQEIADRVQIPLGTVKSRLRLGLSKLREQIEQEHE | 0.291
68 | HMSDPTDRLVLEAALKALGEEERQVVLLHAASGLKHREIARDLGLPLSTVLSRYSRALKKLQRYLTEEGVH | -0.461
69 | HMPIEQVEVPNLTNMTREEAESTLTSLNLKAQVHEEANEADEGKVFKQGTNTGEMVDEGSTIEIWVS | -0.555
70 | HMIETIQVPRAFNDWHEQADKTKSVFEVYAEIEASENEKLIAWVRNNQNEFAKIWLGALIPELE | -1.24
71 | HMDEFEEGVITYFNSEKGFGFIRESKTKQSVFVHSKQLSSPVQLNDKVKFIVNKGLKGLEATEVSVI | ≥ 0.43
72 | HMEGNLVEIFEDAFGRTMSTMDIEYINQFKRTGYDDEMIVSALREAVKSNALSFRYIERVLENWAHS | -1.83
73 | HMVETDQESSLIQAIYKYFEITGDNTFFDEKVGEKTVADRMEWAMDYLIQNRFSEEYGLIWGA | -0.517
74 | HMNKLSISALAETVSTKRKEKSMTQQDLSDATGINRALISRLEQKDFIPSIPQLEKLEEILGFELEEVF | -0.998
75 | HMSSSYMVRITTSVLNVRKGPGTNYGITTKVKKGEVYTIVAEEKNGNTTWGKLKSGTGYISLGYTER | -0.145
